Measurements from patent US20140086829A1 (BIOREC S A, published 2014).

Assays:
[1] = molecular target: T1, human GST-VEGF (human, UniProt P15692-9 27-147); experiment: competition ELISA on coated GST-VEGF; soluble scFv 2H1 titrated; competitor phage scFv 1C9
T1 construct: also called GST-VEGF humano; not shown: GST fusion partner
T1 sequence (looked up): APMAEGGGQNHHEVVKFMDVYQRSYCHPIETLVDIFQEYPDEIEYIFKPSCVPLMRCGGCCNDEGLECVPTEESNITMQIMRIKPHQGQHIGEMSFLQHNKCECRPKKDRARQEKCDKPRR

[2] = molecular target: T1, human GST-VEGF; experiment: competition ELISA on coated GST-VEGF; soluble scFv 2H1 titrated; competitor phage scFv 3F3
[3] = molecular target: T1, human GST-VEGF; experiment: competition ELISA on coated GST-VEGF; soluble scFv 2H1 titrated; competitor phage scFv 3E1
[4] = molecular target: T1, human GST-VEGF; experiment: competition ELISA on coated GST-VEGF; soluble scFv 2H1 titrated; competitor phage scFv 2B12
[5] = molecular target: T1, human GST-VEGF; experiment: competition ELISA on coated GST-VEGF; soluble scFv 2H1 titrated; competitor phage scFv 2H8
[6] = molecular target: T1, human GST-VEGF; experiment: competition ELISA on coated GST-VEGF; soluble scFv 2H1 titrated; competitor phage scFv 2F5
[7] = molecular target: T1, human GST-VEGF; experiment: competition ELISA on coated GST-VEGF; soluble scFv 2H1 titrated; competitor phage scFv 1B1
[8] = molecular target: T1, human GST-VEGF; experiment: competition ELISA on coated GST-VEGF; soluble scFv 2H1 titrated; competitor phage scFv 3E4
[9] = molecular target: T1, human GST-VEGF; experiment: competition ELISA on coated GST-VEGF; soluble scFv 2H1 titrated; competitor phage scFv 3H2
[10] = molecular target: T1, human GST-VEGF; experiment: competition ELISA on coated GST-VEGF; soluble scFv 2H1 titrated; competitor phage scFv 4D8
[11] = molecular target: T1, human GST-VEGF; experiment: competition ELISA on coated GST-VEGF; soluble scFv 2H1 titrated; competitor phage scFv 2A10
[12] = molecular target: T1, human GST-VEGF; experiment: competition ELISA on coated GST-VEGF; soluble scFv 2H1 titrated; competitor phage scFv L2
[13] = molecular target: T1, human GST-VEGF; experiment: competition ELISA on coated GST-VEGF; soluble scFv 2H1 titrated; competitor phage scFv 1E9
[14] = molecular target: T1, human GST-VEGF; experiment: competition ELISA on coated GST-VEGF; soluble scFv 2H1 titrated; competitor phage scFv 2F6
[15] = molecular target: T1, human GST-VEGF; experiment: competition ELISA on coated GST-VEGF; soluble scFv 2H1 titrated; competitor phage scFv 4E11
[16] = molecular target: T1, human GST-VEGF; experiment: competition ELISA on coated GST-VEGF; soluble scFv 2H1 titrated; competitor phage scFv 1H3
[17] = molecular target: T1, human GST-VEGF; experiment: competition ELISA on coated GST-VEGF; soluble scFv 2H1 titrated; competitor phage scFv 3E3
[18] = molecular target: T1, human GST-VEGF; experiment: competition ELISA on coated GST-VEGF; soluble scFv 2H1 titrated; competitor phage scFv L3H7
[19] = molecular target: T1, human GST-VEGF; experiment: competition ELISA on coated GST-VEGF; soluble scFv 2H1 titrated; competitor phage scFv 1H2
[20] = molecular target: T1, human GST-VEGF; experiment: competition ELISA on coated GST-VEGF; soluble scFv 2H1 titrated; competitor phage scFv 1H3; remark: listed apart in the source
[21] = molecular target: T1, human GST-VEGF; experiment: competition ELISA on coated GST-VEGF; soluble scFv 2H1 titrated; competitor phage scFv L3H6
[22] = molecular target: T1, human GST-VEGF; experiment: competition ELISA on coated GST-VEGF; soluble scFv 2H1 titrated; competitor phage scFv 2H1 original
[23] = molecular target: T1, human GST-VEGF; experiment: competition ELISA on coated GST-VEGF; soluble scFv 2H1 titrated; competitor phage scFv 2H10
[24] = molecular target: T1, human GST-VEGF; experiment: competition ELISA on coated GST-VEGF; soluble scFv 2H1 titrated; competitor phage scFv 1G4
[25] = molecular target: T1, human GST-VEGF; experiment: competition ELISA on coated GST-VEGF; soluble scFv 2H1 titrated; competitor phage scFv 2D1O
[26] = molecular target: T1, human GST-VEGF; experiment: competition ELISA on coated GST-VEGF; soluble scFv 2H1 titrated; competitor phage scFv L3
[27] = molecular target: T1, human GST-VEGF; experiment: competition ELISA on coated GST-VEGF; soluble scFv 2H1 titrated; competitor phage scFv 3B10

B1: soluble scFv 2H1 antibody fragment (scFv, from another filing)
scFv: QQVQLVQSGAEVKKPGESLKISCKGSGYSFTSYWIGWVRQMPGKGLEWMGIIYPGDSDTRYSPSFQGQVTISADKSISTAYLQWSSLKASDTAMYYCARLVVRDTEIWGQGTMVTVSSAPQAKSSGSGSESKVDQAVVTQEPSLTVSPGGTVTLTCASSIGAVTSGNYPNWFQQRPGQPPRALIYSTSNKHSWTPARFSGSLLGGKAALTLSGAQPEDEAEYYCLLSYSGARPVFGGGTKLTVLGAAAGSEQKLISEEDLNSHHHHHH
B1 was tested, and the IC50 [1] was 38.3 µg/mL, the IC50 [2] was 49.7 µg/mL and the IC50 [3] was 21.2 µg/mL. For the same binder, the IC50 [4] was 21.1 µg/mL, the IC50 [5] was 46.6 µg/mL and the IC50 [6] was 4.21 µg/mL. The IC50 [7] was 151 µg/mL, the IC50 [8] was 13.5 µg/mL and the IC50 [9] was 19.6 µg/mL. The IC50 [10] was 33 µg/mL, the IC50 [11] was 35.8 µg/mL and the IC50 [12] was 126 µg/mL. It also gave an IC50 [13] of 46.2 µg/mL, an IC50 [14] of 119 µg/mL and an IC50 [15] of 5.28 µg/mL. For the same binder, the IC50 [16] was 117 µg/mL, the IC50 [17] was 35.1 µg/mL and the IC50 [18] was 890 µg/mL. It also gave an IC50 [19] of 124 µg/mL, an IC50 [20] of 110 µg/mL and an IC50 [21] of 978 µg/mL. It also gave an IC50 [22] of 5.08 µg/mL, an IC50 [23] of 10.2 µg/mL and an IC50 [24] of 57.7 µg/mL. It also gave an IC50 [25] of 65.7 µg/mL, an IC50 [26] of 350 µg/mL and an IC50 [27] of 7.94 µg/mL.
